Source: the DeepSol protein solubility set

Test: soluble on expression in E. coli; label from the status in PepcDB or PDB records

Sequence | soluble on expression in E. coli
MTEIVERMKKKNIVKPIVYGNTATPFGYKRDSDQHTHQWTVFLKPYLIEDPTKWIRKVQFKLHESYAVPYRVVEKPPYEVTETGWGEFEIQIRIYFVDPNEKPITAFHYLRLFQPTIELPSGNQIVCMEFYDEIIFQEPTVQMYKALQASDGKRPDKQAFLNDIEQVKTRTRELGEVAQKEIAAEIEDLRESLKDAHKMIVKYNTELAEQE | not soluble
EVIDLASPIEAHGETLSQVTFRRPTAQEARAIKALPYKIDKNEDVSLDLDVAAKYIAVCAGIPPSSVNQMDLCDINTLSWKVASFFMAAAS | not soluble
MSLIDPKRARLPIIRQCTLLRLNRSGVYYRSVPQSEANLELMRLIDAQFLETPYYGSRQMTWHLRRLGHEVGRKRVRRLMAIMGLRAIYQKPRTSVPHPEHRKYPYLLRDLVIDRPNQVWCSDITYIPMKRGFLYLVAIMDWFTRKVLSWRLSNTMDAEFCIEALRDALMRYGPPEIFNTDQGSQFTTPRFTGILEERQIRISMDGRGRWLDNVFIERLWRSLKYECVYLHAFETESELRVGLTKWITHYNGQRPHTALAGRTPDEAYHGVPTPSGPGLTPDQMANSNAVRMAAEGHHHHHH | soluble
MKKAADRPTSAVNGRHESPATSTNNTQNSGTPSLNGQDPLRSTSSSPLFGTEPLPEDDHASCPYCQQDFRKPRVLDCLHSMCEDCIIAQLDGHLQAKSAAIEEKKRATAAMLDCELETPKVKERPTPPGVIRCPICSQESHVGNDVRYVHAMLLDFVRLAEMKEVEVEKMVAHHRKPCTACKSEQEAIAFCDQCSSDLCENCTTAHTVMNLFQGHTVTTFADLRQPGAHPELRQVMCSTHNQHMRYLCAACETAACKQCLEVDHLNHKIIDINELVINAIREDVTSTVDRVEKKYNNSVADMNSLPDKSQQLNEQYEIAKYRVDKHYEELRNSIEEAYQKSVNDLEEARIRQESNIDEMYRKSQVNEARVHDAINFTRRLLTKGNGLELVVSRKKVIQQFGNLSHAIPSHGHQVELEFYTPSKKQIDHFVHQLTGTVIGRVIQPTVKDVGNATAASTDRSERGGSQPGGGRSSSAANPSQQDEWGRPVYSQNPQLGAIGGERKKNTQNGTNGTRGDSNAFGGWPPSSHPPESTTPPPVTGPQTMITGAPTQTAAPIVSQQQLSNLPNAAAMAAAAAGMRPDLVALAANHMDLAALTNGSTNGSQTPLPESIFPAMWNARQGLPAVATPTTTGLSTNASAAYMQQKLAAAQLQALASHRLNPQIMSMNNLRTNQTIQEFLAMNAMGNLSLNPQLTSAAAAALAATAAANSAVTTTASDVGQSQNSANAQRVSDLKVHSVFGTSQQGSTIRELHCPSGFCLSDTDDILIADTNNHRVVVCGPPHPWKIGRPGTDDGQLCFPRKVIALRGEAVRYVVLDKGGDGKTRAQIFEARGEFVKRLNMMALVPRGGIEVSAAAATPNGQLLLVDTAGFVYSIDVDAPRVTFWFDASTQLGEASDVAMFDNLIYITDFKHHCVQVYTSEGKFIRKMGEPSQTPYPIGIDVSKAGEVLVADTHGNHLHVVVFSPEGQHIHSFTHNEFRLSRCVGLRIAKSGHIVTLCKHNHTLFVFKPLILPNGLPVPTPVPHATSLISKFQ | not soluble
METGGGAPLTKSSEAVEGDFVEDRLRGNEAFRRGNYEAAASYYSEALEKIRLAKTELPTQDRYPWSLEEVLIRCNRALVFLRLASAAALPNVGSNRFEEDACTAEHESEEATPCSLWQRAAEDASVALDLITDFEDEGESERVTELRVKALYRRMVANKGQNNFADAAKDAEALAKIRPEYRSEAELLAQRAAAESERAKQEALQKLKEVGNSFLSLFGVSIDNFQTKRNPDGTYSVSYCPKS | not soluble
MRVVVTGATGFVGQQVVKALSDRGDQVVALVRSPGKAAKQFAGVPRVEWLGYTPKAAGDWFSALEGADAVIHLAGEPLANGRWTPQRKQEIYDSRVVGTQQLVQAIAQCQQRPRVLVSTSAIGYYGTSDTETFVETHAAGNDFLAKVCGDWEAAAQGVTELGVRLVILRFGIVLGEQGALAKLLLPFQLYLGGPLGSGQQWFSWIHQQDLVRLILTAVDQVGMQGVYNATAPEPLRMADFCRILAEVMQRPSWLPVPAPVLQLLLGEGADVVLKGQRVLPERTLATGFEFHYPNAKTALTNLLKPRYTEGSRLEHHHHHH | soluble
MAHHHHHHMKSATMSATHALRDKWFVSFLPLLTADMVNTDYKGNWQLAAQERTQKLDWITSVEELWSTMNSLPKVHQLGMGSTLIFARNNKEPPSYEAYPNGSRIMINLLKPPTTDAGLELVLAVVMGETAAEKASDGKPVCDVLRIAARPSREHSEQIRVEVWLSDSTRSHAVAEFLAEAMRAKGLAANSYNIAEASFDAAAPGKDKKVLAASTMPSPSSPPMVKD | soluble
MNVPSTSSTRGYAKYQIRSSGMPRVLANESDVFTLDDVDVDEETDELKPNRITITKEEEKSRLVECNLDSDEEEDKTPPKEDDKGQNIRLSSKNSSTVESKERCRLRDSFDLDNDDSLSDDLDLLPPIPGAPNANSSLCSKLHRFNCCNPRIPSKCTIM | soluble
MSDLKNLILNSSILLDTSSTVQNDLNPEQLINVHEDSDGGRDLLTPESFILLMAEILSTNNADTICEYEHQNSADNKVLQNLQFKEVEEDEQIEGLNEQKKSLDNPLWHDVDLPVINEISGNQCEGQFESTLEKNVALTWINSENFQPPIVKPENQTDETYKIWDSEITSIESGKLKLDFPKADYDGNNINPYQKEAINQPGNDSSKNHQLIKGNDSFPILEDIKTNAEPGTKAIKSEVEATKVGTEIPGSSFQMNQKAGSDIQPPVVSNSHIPKNFSIPIHVNHSQWSEQLSEHIVWLGHQDVKSALIKIHPEELGPLEINVKVVKDNASVNISTHSVYVKEIVDQAIPRLREMMAQQGINLSEVHIGTDTSSRQGSQKNHHAEIDLIQSAEDKNKITSLTRHLPKGLVDYFA | not soluble
MGSDKIHHHHHHMSDVYDYLKESLPGDHSRQATAEAVLQARVAKGFAPAKVLDFGCGDGRSIDLFRRMLPQVDWTGVDIEASPEVASRRRQDGRFVTYDGYELPFPDRSFPLVYSHQVLEHVRKPELALREIARVLEPDGLFIGQTSQFEPYHSYSLWNFTVYGFKRIVEDAGMQLAELRPGIDGFTLMRRTYEGRPPEMSKYFSQESPINEEIEKAAGDKRTQVRNFRKLLFCGQFIFVVQLR | not soluble
MADEATRRVVSEIPVLKTNAGPRDRELWVQRLKEEYQSLIRYVENNKNADNDWFRLESNKEGTRWFGKCWYIHDLLKYEFDIEFDIPITYPTTAPEIAVPELDGKTAKMYRGGKICLTDHFKPLWARNVPKFGLAHLMALGLGPWLAVEIPDLIQKGVIQHKEKCNQLEHHHHHH | soluble
MGSDKIHHHHHHMKLEKILQDLEQNHNLRTLTPLKHENKFVYKQDHKLLNLVGNDYLYLASSKELKAEFLNTLKEQDLFFSSSSSRSLSGNFEIYEKLESFLKTKFKDKEILHFNSGYHLNISCIAALSSVSKTLFLTDKFIHASMIDGLRLGRADFFRFHHKDMNHLESLIQKHYENYENIIVLSEALFSMDGDFSDFKTLCELKRRYDKIKLYIDEAHSVGCFDEEGLGLVKKLALENEVDFLVFTFGKALASMGACIICDEKYKKFFINKARAFIYSTALPPINVAWTQFIFKKMPYFKKEREKLELLSTFFKSKLQEKNHIVLGDAYIICLLLGENKKALEISQKLQKAGFFAPAIKEPTVPKNTARIRFSLHAGLNTEELERIIELL | not soluble
MGSDKIHHHHHHMSYQDGKYQTEAEGLHGPVKVATTITGGKISAVEVLVGAGEYQSKANDVIASEIIAAQSTDVDAVSGATVSSNAIMTAVKKALQEASGESQDKTSEELTTDLAIVAAGPAGLAAAVSAAEQGVKILVFEKEKITGGTANMGMGPLGINSKIQRANFNEITVAEALKNQMEYTHYRVNGRLVARLLQIVCLNYRLVGRHGSQVRRGFPLLQGIQRHLAHR | not soluble
MPNLNAVIAQNISKGDVIWVPYRKDPMWPALVNNAYPKKVSYSFFPLAPGVDETKRSRFSCAPKLTYALVTTEPLPENANSDLKKAHRAACEYLSSNGKTRGSNIQSLGEAAGGSEKMKKMNGEVTKNKTGKPEKRKKKVDSEQQENEEDDEDLMSPVSKKPSSSERSTPSGSQQQPPITEEQSKSMMKMIDDRFEVLINEIWKSDEVAQSKNQTMKDKMTIKLKNNQFLKESDYDIVFERIFNFIRMQNPSLSFISTFNITSSHIIPHILITCYSACRNLDYQTSKEIFYQLNTRVLGLDSSMSIPVTDHLEELCRLACDESDAIQILENEHGDKISKDGTATQTRGNVFEEMR | not soluble
